Experimental data reported in the supplement of paper PMC10126150.
± gives the standard deviation of the averaged measurements.

System: ATP
Experiment: switch fluorescence ratio, 500 uM ATP over buffer (Cy3 cluster intensity, sum of 5 cycles each) (fold (ratio)); higher = stronger signal-on switching upon ATP binding; sequences stand for … in TCGTCGGCAGCGTCAGATGTGTATAAGAGACAGTTTTTTTTTTTTTTTTTTTTTTTTT…TC
Conditions: aptamer strand: ATP DNA aptamer (quencher-CACCTGGGGGAGTATTGCGGAGGAAGG + anchor), 100 nM annealed; ATP concentration: 500 uM
Procedure, shortened: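 Cy3-labelled switching-strand clusters on a modified Illumina MiSeq flow-cell were annealed to 100 nM quencher-labelled ATP aptamer and imaged first in selection buffer, then after 15 min with 500 uM ATP at 22 °C. NaOH stripping and re-annealing separated each of five buffer/ATP cycles, and clusters outside 100-1000 RFU were excluded. The fluorescence ratio sums target-cycle Cy3 intensity over buffer-cycle Cy3 intensity per cluster and averages it per switch-domain sequence.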
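Further: ATP exposure 15 min at 22 °C before imaging.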

Row | Sequence | switch fluorescence ratio
1 | AGCGCGGTAA | 1 ± 0.013
2 | ATAGTAACCG | 0.997 ± 0.083
3 | CTGGACGGTG | 1.032 ± 0.0042
4 | CTTGATACTC | 1.18 ± 0.032
5 | ATGATCTAGT | 1.03 ± 0.064
6 | TAGTCATTAC | 1.12 ± 0.12
7 | CTAATTTTGT | 0.995 ± 0.014
8 | GCAATTAAAG | 1.12 ± 0.14
9 | TAATGCTTGG | 1.01 ± 0.031
10 | AGTTTGCTGG | 0.996 ± 0.039
11 | AAACAGTATA | 1.03 ± 0.027
12 | AACAGGCTGG | 1.01 ± 0.013
13 | ATAATGAGTC | 0.961 ± 0.013
14 | CGGGGGCGGG | 0.99 ± 0.042
15 | AATGCTTGAG | 1.05 ± 0.08
16 | GAGTTTGGTT | 0.98 ± 0.063
17 | CTAAAAACGG | 1.002 ± 0.01
18 | CAGCGGGGGG | 1.01 ± 0.034
19 | TGAGGCAGGA | 1.04 ± 0.042
20 | GGGTGACCAC | 0.986 ± 0.0044
21 | AGGCCAGTTG | 1.02 ± 0.012
22 | CTTCTTAGTT | 0.976 ± 0.019
23 | ACAATTGTCG | 1.028 ± 0.01

Row | Sequence | switch fluorescence ratio
24 | GCAGGATCCG | 0.99684 ± 0.00077
25 | CATATGGTAT | 1.02 ± 0.037
26 | AAGCGGGAGC | 1.026 ± 0.0049
27 | TGGGGGAAAG | 0.993 ± 0.026
28 | TCTTTTGGTT | 1.011 ± 0.0051
29 | AAGTGGGCTG | 0.981 ± 0.023
30 | CATATTTGGG | 0.981 ± 0.081
31 | CAAAGGAGGT | 1.03 ± 0.096
32 | TGAAGTCGGT | 0.9681 ± 0.0066
33 | TGGTTTAGGC | 0.997 ± 0.011
34 | TTATTTGGGC | 1.06 ± 0.081
35 | ACGGTAAGGA | 1.098 ± 0.0091
36 | TTTTGGGTCG | 1.03 ± 0.025
37 | GAAATGCGCA | 1.08 ± 0.17
38 | CGGGTCGAAA | 0.982 ± 0.049
39 | ACTTTTTGTG | 1 ± 0.013
40 | CGGAAATAAA | 0.968 ± 0.025
41 | GAGAATTATA | 0.978 ± 0.019
42 | AGAAAAGGTT | 0.98 ± 0.021
43 | CCAGACGGGG | 0.986 ± 0.029
44 | TTTAGACGAC | 1.04 ± 0.051
45 | TTATTTAGGT | 1.01 ± 0.043
46 | TAGGGGAGTA | 0.9792 ± 0.0068

Row | Sequence | switch fluorescence ratio
47 | GTAAGTCATT | 1 ± 0.029
48 | TAAGTCCTTT | 0.9828 ± 0.0041
49 | TGATCGGCTA | 1.01 ± 0.049
50 | CATTTTGCGC | 1.04 ± 0.042
51 | TGGGTACAGC | 1.02 ± 0.04
52 | CGCCGGGAGA | 1.05 ± 0.036
53 | TAATTACTAT | 1.12 ± 0.17
54 | CGGTGATTTT | 1.02 ± 0.03
55 | AACAATGGGG | 1.03 ± 0.077
56 | GTAGGGGTAA | 0.974 ± 0.036
57 | TTTGGGCTAT | 1.021 ± 0.0064
58 | CATTGGTGGG | 0.977 ± 0.028
59 | GTATTTGTTC | 1.01 ± 0.034
60 | GTTTGTGGGT | 0.977 ± 0.011
61 | GGATGTTATG | 1.016 ± 0.0078
62 | TTAAGGAGGT | 1.03 ± 0.099
63 | CCACGGGATG | 1.09 ± 0.03
64 | GATGTGAGGC | 1.14 ± 0.046
65 | CGGGGAATGG | 1.01 ± 0.03
66 | CTGAACGAAT | 1.43 ± 0.034
67 | GGCGTTTTGA | 1.04 ± 0.021
68 | GGGGCTTAAA | 1.04 ± 0.047
69 | TTGGGTTAGT | 1.01 ± 0.019

Row | Sequence | switch fluorescence ratio
70 | CCGTCGGCGC | 1.08 ± 0.019
71 | GCGGTGACGG | 1 ± 0.062
72 | AAGCGGTCCG | 1.02 ± 0.025
73 | TATAGTTTGC | 0.969 ± 0.026
74 | AAAACGCATG | 1.05 ± 0.021
75 | GCTGGGTGAT | 1.018 ± 0.0069
76 | GTTGGTCGGG | 1.02 ± 0.037
77 | CCATGTAAGA | 1.018 ± 0.0091
78 | TGAATTGCAT | 0.96601 ± 0.00064
79 | TGGGGCTACA | 0.983 ± 0.056
80 | ATGTTTTTGT | 0.989 ± 0.042
81 | GTGGGACATA | 0.999 ± 0.044
82 | TTTGGCCAGC | 0.975 ± 0.051
83 | AAAGTCGGGC | 0.946 ± 0.059
84 | CAGGTTTTCT | 0.9968 ± 0.0018
85 | TTGGTCTTAC | 1.06 ± 0.096
86 | GGGGGTGTGT | 1.01 ± 0.035
87 | AAAATTCCGG | 1.011 ± 0.0011
88 | CAGTGACAGT | 1.028 ± 0.0014
89 | TAAGCTCTCG | 0.9915 ± 0.0027
90 | CCGTAGGTTT | 1.06 ± 0.037
91 | GAATAGCCCA | 0.9711 ± 0.0012
92 | CAGGGATAGG | 1.019 ± 0.0092

Row | Sequence | switch fluorescence ratio
93 | GGTGTACGGG | 0.987 ± 0.036
94 | AAAGGGTGTT | 1.04 ± 0.013
95 | CGATTGCAG | 1.0118 ± 0.00044
96 | AATTATAAGA | 0.996 ± 0.027
97 | TATTGTGGGG | 1 ± 0.044
98 | TTGGTTAAAT | 1.01 ± 0.026
99 | GCAGTCTGGG | 0.991 ± 0.01
100 | GATTGGGTGA | 0.972 ± 0.011
101 | TGCAGTTTGT | 0.9929 ± 0.0065
102 | TTTATGATTA | 1.035 ± 0.005
103 | CGCTGTGGGA | 0.973 ± 0.053
104 | CGGTGGGCGC | 0.974 ± 0.091
105 | ATCAGGGTGT | 1.16 ± 0.031
106 | CGAAAATTCA | 1.02 ± 0.0077
107 | GCGAGAGAGT | 0.99812 ± 0.0009
108 | TGGGTTTTGT | 1.01 ± 0.029
109 | TTAAATGGG | 0.9799 ± 0.0063
110 | GCCGGGGCGG | 1.006 ± 0.0041
111 | TATGTATTTT | 1.02 ± 0.055
112 | CTTGTCGATT | 0.999 ± 0.04
113 | AAAAATGTTC | 0.9814 ± 4.7e-05
114 | TAAGGGTGCT | 1.039 ± 0.0037
115 | AATTGGTAGG | 1 ± 0.072

Row | Sequence | switch fluorescence ratio
116 | TTTTGGCGC | 1.002 ± 0.0012
117 | TTTCGTTCTT | 1.02 ± 0.03
118 | CGTAAAGGAG | 0.992 ± 0.052
119 | ACTAATGTAT | 1 ± 0.014
120 | CTATGAAGGG | 0.963 ± 0.034
121 | AATTAGTTGT | 0.9918 ± 0.0084
122 | TGAGGGCTAG | 1 ± 0.015
123 | GTGATGGATG | 0.997 ± 0.057
124 | GATTGGGAGG | 1.03 ± 0.034
125 | GGATTATTAG | 0.965 ± 0.016
126 | CAGCTTTTCG | 0.998 ± 0.046
127 | AATCCGTGTG | 1.01 ± 0.019
128 | GCGATCAATT | 1.14 ± 0.051
129 | GCTGATTGTG | 1 ± 0.023
130 | TTAATTTGGG | 1.01 ± 0.024
131 | GGGGAGCGCG | 0.981 ± 0.035
132 | TTAGAGGCGC | 1.035 ± 0.0095
133 | GCGCAGCTCG | 0.9814 ± 0.0084
134 | ATACTGACAT | 1.2 ± 0.053
135 | CAGCGTGGGG | 1.022 ± 0.0092
136 | TTTTGGTCGA | 1.03 ± 0.022
137 | TCGTCAGCGA | 2.77 ± 0.06
138 | GCTCTCCTGT | 1.02 ± 0.023

Row | Sequence | switch fluorescence ratio
139 | GCATGAAGTA | 0.99 ± 0.017
140 | GGGAAATTTT | 0.987 ± 0.021
141 | TAAGCCTGTT | 1 ± 0.021
142 | AGTTATAGTT | 0.997 ± 0.052
143 | TCCAGGTGAC | 4.19 ± 0.38
144 | GTGATGTCTC | 1.008 ± 0.0091
145 | GGTACGGTTT | 1.04 ± 0.02
146 | TGCATGGGGT | 1.01 ± 0.022
147 | TATGAGTGGG | 0.976 ± 0.018
148 | TGAGTGGGGG | 0.982 ± 0.014
149 | ATCGAATGCT | 1.001 ± 0.0096
150 | AATGTGCCGG | 1.01 ± 0.019
151 | CTAATGCGGA | 1.01 ± 0.019
152 | GGTGGGTTGC | 0.9858 ± 0.0086
153 | TTTTGGGGGC | 1.01 ± 0.023
154 | GTTTAAGGGG | 1.005 ± 0.0068
155 | TTCAGAGTTG | 0.985 ± 0.095
156 | CAGGTATTGA | 1 ± 0.03
157 | TAAGGTAAGT | 0.987 ± 0.021
